Measured values as given in patent US6071515.

Target: Bovine submaxillary mucin (BSM) (bovine)
Test: binding of the 125I-labelled protein to BSM

Substance	Percent Activity (as determined by BSM binding)
CC49, murine monoclonal antibody specific to TAG-72 (ATCC No. HB9459)	96 percent
ChCC49 Fab	64 percent
